Measurements from paper PMC10855199.

Target: Aβ42 oligomers
Experiment: SPR; Biacore T200; AL fibrils (1000 RU) or Aβ42 oligomers (500 RU) amine-coupled on CM5; two-fold serial dilutions of whole antibody injected at 30 μL/min; 25 °C; 10 mM phosphate, 137 mM NaCl, 2.7 mM KCl, 0.05% Tween-20, pH 7.5; global fit to a Langmuir 1:1 model

Kd: 1.53 nM
koff: 0.00116 s⁻¹
kon: 761000 M⁻¹ s⁻¹
B1: wild-type crenezumab (antibody, V domains shown)
VH: EVQLVESGGGLVQPGGSLRLSCAASGFTFSSYGMSWVRQAPGKGLELVASINSNGGSTYYPDSVKGRFTISRDNAKNSLYLQMNSLRAEDTAVYYCASGDYWGQGTTVTVSS
VL: DIVMTQSPLSLPVTPGEPASISCRSSQSLVYSNGDTYLHWYLQKPGQSPQLLIYKVSNRFSGVPDRFSGSGSGTDFTLKISRVEAEDVGVYYCSQSTHVPWTFGQGTKVEIK
